Experiments:
HeLa Kyoto [1] = experiment: melting temperature (median over replicates), in situ; higher = more thermally stable
HeLa Kyoto [2] = experiment: solubility change mitosis vs G1/S (difference of NP-40 vs SDS log2 ratios) (log2 ratio difference); higher = more soluble in mitosis
HeLa Kyoto [3] = experiment: thermal stability score vs G1/S (z-score of summed log2 fold changes over temperatures); higher = more thermally stable than in G1/S
HeLa Kyoto [4] = experiment: solubility in G1/S (NP-40 vs SDS abundance) (log2 ratio); higher = more soluble; conditions: cell cycle stage: G1/S
[5] = cell cycle stage: early G1 (4.5 h after nocodazole release)
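For melting temperature (median over replicates), in situ in this document: HeLa Kyoto cells synchronized by double thymidine or nocodazole block, proteins quantified by TMT10plex mass spectrometry, three independent biological replicates.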
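For solubility change mitosis vs G1/S (difference of NP-40 vs SDS log2 ratios) in this document: synchronized HeLa Kyoto cells (double thymidine block for G1/S, nocodazole release for mitosis), protein amounts in NP-40 versus SDS lysates quantified by mass spectrometry, three biological replicates.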
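For solubility in G1/S (NP-40 vs SDS abundance) in this document: HeLa Kyoto cells arrested at G1/S by double thymidine block, proteins quantified by TMT10plex mass spectrometry in mild NP-40 versus SDS extracts, three biological replicates.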
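For thermal stability score vs G1/S (z-score of summed log2 fold changes over temperatures) in this document: synchronized HeLa Kyoto cells, proteins quantified by TMT10plex mass spectrometry, three biological replicates, mitosis taken 0.5 h after nocodazole release, G1/S directly after double thymidine block.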

Row | Sequence | melting temperature (HeLa Kyoto [1]; cell cycle stage: G1/S) | melting temperature (HeLa Kyoto [1]; cell cycle stage: mitosis) | solubility change mitosis (log2) (HeLa Kyoto [2]) | thermal stability score (HeLa Kyoto [3]; [5]) | thermal stability score (HeLa Kyoto [3]; cell cycle stage: mitosis) | solubility in G1/S (log2) (HeLa Kyoto [4])
1 | MASLDDPGEVREGFLCPLCLKDLQSFYQLHSHYEEEHSGEDRDVKGQIKSLVQKAKKAKDRLLKREGDDRAESGTQGYESFSYGGVDPYMWEPQELGAVRSHLSDFKKHRAARIDHYVVEVNKLIIRLEKLTAFDRTNTESAKIRAIEKSVVPWVNDQDVPFCPDCGNKFSIRNRRHHCRLCGSIMCKKCMELISLPLANKLTSASKESLSTHTSPSQSPNSVHGSRRGSISSMSSVSSVLDEKDDDRIRCCTHCKDTLLKREQQIDEKEHTPDIVKLYEKLRLCMEKVDQKAPEYIRMAASLNAGETTYSLEHASDLRVEVQKVYELIDALSKKILTLGLNQDPPPHPSNLRLQRMIRYSATLFVQEKLLGLMSLPTKEQFEELKKKRKEEMERKRAVERQAALESQRRLEERQSGLASRAANGEVASLRRGPAPLRKAEGWLPLSGGQGQSEDSDPLLQQIHNITSFIRQAKAAGRMDEVRTLQENLRQLQDEYDQQQTEKAIELSRRQAEEEDLQREQLQMLRERELEREREQFRVASLHTRTRSLDFREIGPFQLEPSREPRTHLAYALDLGSSPVPSSTAPKTPSLSSTQPTRVWSGPPAVGQERLPQSSMPQQHEGPSLNPFDEEDLSSPMEEATTGPPAAGVSLDPSARILKEYNPFEEEDEEEEAVAGNPFIQPDSPAPNPFSEEDEHPQQRLSSPLVPGNPFEEPTCINPFEMDSDSGPEAEEPIEEELLLQQIDNIKAYIFDAKQCGRLDEVEVLTENLRELKHTLAKQKGGTD [RBSN] | 50.7 °C | 50.4 °C | -0.00797 | 0.55 | 1.28 | 0.33
2 | MASNMDREMILADFQACTGIENIDEAITLLEQNNWDLVAAINGVIPQENGILQSEYGGETIPGPAFNPASHPASAPTSSSSSAFRPVMPSRQIVERQPRMLDFRVEYRDRNVDVVLEDTCTVGEIKQILENELQIPVSKMLLKGWKTGDVEDSTVLKSLHLPKNNSLYVLTPDLPPPSSSSHAGALQESLNQNFMLIITHREVQREYNLNFSGSSTIQEVKRNVYDLTSIPVRHQLWEGWPTSATDDSMCLAESGLSYPCHRLTVGRRSSPAQTREQSEEQITDVHMVSDSDGDDFEDATEFGVDDGEVFGMASSALRKSPMMPENAENEGDALLQFTAEFSSRYGDCHPVFFIGSLEAAFQEAFYVKARDRKLLAIYLHHDESVLTNVFCSQMLCAESIVSYLSQNFITWAWDLTKDSNRARFLTMCNRHFGSVVAQTIRTQKTDQFPLFLIIMGKRSSNEVLNVIQGNTTVDELMMRLMAAMEIFTAQQQEDIKDEDEREARENVKREQDEAYRLSLEADRAKREAHEREMAEQFRLEQIRKEQEEEREAIRLSLEQALPPEPKEENAEPVSKLRIRTPSGEFLERRFLASNKLQIVFDFVASKGFPWDEYKLLSTFPRRDVTQLDPNKSLLEVKLFPQETLFLEAKE [FAF1] | 53.6 °C | 53.5 °C | -0.147 | 0.291 | 1.77 | 0.0926
3 | MASPGCLLCVLGLLLCGAASLELSRPHGDTAKKPIIGILMQKCRNKVMKNYGRYYIAASYVKYLESAGARVVPVRLDLTEKDYEILFKSINGILFPGGSVDLRRSDYAKVAKIFYNLSIQSFDDGDYFPVWGTCLGFEELSLLISGECLLTATDTVDVAMPLNFTGGQLHSRMFQNFPTELLLSLAVEPLTANFHKWSLSVKNFTMNEKLKKFFNVLTTNTDGKIEFISTMEGYKYPVYGVQWHPEKAPYEWKNLDGISHAPNAVKTAFYLAEFFVNEARKNNHHFKSESEEEKALIYQFSPIYTGNISSFQQCYIFD [GGH] | 60.5 °C | 60 °C | -0.0381 | 0.878 | -0.77 | 0.326
4 | MASPQLCRALVSAQWVAEALRAPRAGQPLQLLDASWYLPKLGRDARREFEERHIPGAAFFDIDQCSDRTSPYDHMLPGAEHFAEYAGRLGVGAATHVVIYDASDQGLYSAPRVWWMFRAFGHHAVSLLDGGLRHWLRQNLPLSSGKSQPAPAEFRAQLDPAFIKTYEDIKENLESRRFQVVDSRATGRFRGTEPEPRDGIEPGHIPGTVNIPFTDFLSQEGLEKSPEEIRHLFQEKKVDLSKPLVATCGSGVTACHVALGAYLCGKPDVPIYDGSWVEWYMRARPEDVISEGRGKTH [MPST] | 50.1 °C | 50.5 °C | -0.0783 | 3.35 | 0.97 | 0.45
5 | MASQLQNRLRSALALVTGAGSGIGRAVSVRLAGEGATVAACDLDRAAAQETVRLLGGPGSKEGPPRGNHAAFQADVSEARAARCLLEQVQACFSRPPSVVVSCAGITQDEFLLHMSEDDWDKVIAVNLKGTFLVTQAAAQALVSNGCRGSIINISSIVGKVGNVGQTNYAASKAGVIGLTQTAARELGRHGIRCNSVLPGFIATPMTQKVPQKVVDKITEMIPMGHLGDPEDVADVVAFLASEDSGYITGTSVEVTGGLFM [HSD17B8] | 55.3 °C | 56.3 °C | 0.119 | -0.337 | -1.5 | 0.368
6 | MASRCWRWWGWSAWPRTRLPPAGSTPSFCHHFSTQEKTPQICVVGSGPAGFYTAQHLLKHPQAHVDIYEKQPVPFGLVRFGVAPDHPEVKNVINTFTQTAHSGRCAFWGNVEVGRDVTVPELREAYHAVVLSYGAEDHRALEIPGEELPGVCSARAFVGWYNGLPENQELEPDLSCDTAVILGQGNVALDVARILLTPPEHLERTDITKAALGVLRQSRVKTVWLVGRRGPLQVAFTIKELREMIQLPGARPILDPVDFLGLQDKIKEVPRPRKRLTELLLRTATEKPGPAEAARQASASRAWGLRFFRSPQQVLPSPDGRRAAGVRLAVTRLEGVDEATRAVPTGDMEDLPCGLVLSSIGYKSRPVDPSVPFDSKLGVIPNVEGRVMDVPGLYCSGWVKRGPTGVIATTMTDSFLTGQMLLQDLKAGLLPSGPRPGYAAIQALLSSRGVRPVSFSDWEKLDAEEVARGQGTGKPREKLVDPQEMLRLLGH [FDXR] | 51.7 °C | 51.8 °C | -0.0461 | 0.0282 | 0.706 | 0.349
7 | MASRGRRPEHGGPPELFYDETEARKYVRNSRMIDIQTRMAGRALELLYLPENKPCYLLDIGCGTGLSGSYLSDEGHYWVGLDISPAMLDEAVDREIEGDLLLGDMGQGIPFKPGTFDGCISISAVQWLCNANKKSENPAKRLYCFFASLFSVLVRGSRAVLQLYPENSEQLELITTQATKAGFSGGMVVDYPNSAKAKKFYLCLFSGPSTFIPEGLSENQDEVEPRESVFTNERFPLRMSRRGMVRKSRAWVLEKKERHRRQGREVRPDTQYTGRKRKPRF [WBSCR22] | 52.9 °C | 52.9 °C | 0.0973 | 1.09 | 0.578 | -0.361
8 | MASSAQSGGSSGGPAVPTVQRGIIKMVLSGCAIIVRGQPRGGPPPERQINLSNIRAGNLARRAAATQPDAKDTPDEPWAFPAREFLRKKLIGKEVCFTIENKTPQGREYGMIYLGKDTNGENIAESLVAEGLATRREGMRANNPEQNRLSECEEQAKAAKKGMWSEGNGSHTIRDLKYTIENPRHFVDSHHQKPVNAIIEHVRDGSVVRALLLPDYYLVTVMLSGIKCPTFRREADGSETPEPFAAEAKFFTESRLLQRDVQIILESCHNQNILGTILHPNGNITELLLKEGFARCVDWSIAVYTRGAEKLRAAERFAKERRLRIWRDYVAPTANLDQKDKQFVAKVMQVLNADAIVVKLNSGDYKTIHLSSIRPPRLEGENTQDKNKKLRPLYDIPYMFEAREFLRKKLIGKKVNVTVDYIRPASPATETVPAFSERTCATVTIGGINIAEALVSKGLATVIRYRQDDDQRSSHYDELLAAEARAIKNGKGLHSKKEVPIHRVADISGDTQKAKQFLPFLQRAGRSEAVVEYVFSGSRLKLYLPKETCLITFLLAGIECPRGARNLPGLVQEGEPFSEEATLFTKELVLQREVEVEVESMDKAGNFIGWLHIDGANLSVLLVEHALSKVHFTAERSSYYKSLLSAEEAAKQKKEKVWAHYEEQPVEEVMPVLEEKERSASYKPVFVTEITDDLHFYVQDVETGTQLEKLMENMRNDIASHPPVEGSYAPRRGEFCIAKFVDGEWYRARVEKVESPAKIHVFYIDYGNREVLPSTRLGTLSPAFSTRVLPAQATEYAFAFIQVPQDDDARTDAVDSVVRDIQNTQCLLNVEHLSAGCPHVTLQFADSKGDVGLGLVKEGLVMVEVRKEKQFQKVITEYLNAQESAKSARLNLWRYGDFRADDADEFGYSR [SND1] | 47.9 °C | 48.1 °C | 0.0116 | 0.34 | 3.69 | -0.0826
9 | MASSGEDISNDDDDMHPAAAGMADGVHLLGFSDEILLHILSHVPSTDLILNVRRTCRKLAALCLDKSLIHTVLLQKDYQASEDKVRQLVKEIGREIQQLSMAGCYWLPGSTVEHVARCRSLVKVNLSGCHLTSLRLSKMLSALQHLRSLAIDVSPGFDASQLSSECKATLSRVRELKQTLFTPSYGVVPCCTSLEKLLLYFEILDRTREGAILSGQLMVGQSNVPHYQNLRVFYARLAPGYINQEVVRLYLAVLSDRTPQNLHAFLISVPGSFAESGATKNLLDSMARNVVLDALQLPKSWLNGSSLLQHMKFNNPFYFSFSRCTLSGGHLIQQVINGGKDLRSLASLNLSGCVHCLSPDSLLRKAEDDIDSSILETLVASCCNLRHLNLSAAHHHSSEGLGRHLCQLLARLRHLRSLSLPVCSVADSAPRADRAPAQPAMHAVPRGFGKKVRVGVQSCPSPFSGQACPQPSSVFWSLLKNLPFLEHLELIGSNFSSAMPRNEPAIRNSLPPCSRAQSVGDSEVAAIGQLAFLRHLTLAQLPSVLTGSGLVNIGLQCQQLRSLSLANLGMMGKVVYMPALSDMLKHCKRLRDLRLEQPYFSANAQFFQALSQCPSLQRLCLVSRSGTLQPDAVLAFMARCLQVVMCHLFTGESLATCKSLQQSLLRSFQAERPALNVVIFPLLHEGLTDVIRDVPLVHLDEITLFKSRVAEEPPNLWW [FBXL18] | 53.4 °C | 53 °C | -0.164 | -1.04 | -1.17 | 0.1
10 | MASSRCPAPRGCRCLPGASLAWLGTVLLLLADWVLLRTALPRIFSLLVPTALPLLRVWAVGLSRWAVLWLGACGVLRATVGSKSENAGAQGWLAALKPLAAALGLALPGLALFRELISWGAPGSADSTRLLHWGSHPTAFVVSYAAALPAAALWHKLGSLWVPGGQGGSGNPVRRLLGCLGSETRRLSLFLVLVVLSSLGEMAIPFFTGRLTDWILQDGSADTFTRNLTLMSILTIASAVLEFVGDGIYNNTMGHVHSHLQGEVFGAVLRQETEFFQQNQTGNIMSRVTEDTSTLSDSLSENLSLFLWYLVRGLCLLGIMLWGSVSLTMVTLITLPLLFLLPKKVGKWYQLLEVQVRESLAKSSQVAIEALSAMPTVRSFANEEGEAQKFREKLQEIKTLNQKEAVAYAVNSWTTSISGMLLKVGILYIGGQLVTSGAVSSGNLVTFVLYQMQFTQAVEVLLSIYPRVQKAVGSSEKIFEYLDRTPRCPPSGLLTPLHLEGLVQFQDVSFAYPNRPDVLVLQGLTFTLRPGEVTALVGPNGSGKSTVAALLQNLYQPTGGQLLLDGKPLPQYEHRYLHRQVAAVGQEPQVFGRSLQENIAYGLTQKPTMEEITAAAVKSGAHSFISGLPQGYDTEVDEAGSQLSGGQRQAVALARALIRKPCVLILDDATSALDANSQLQVEQLLYESPERYSRSVLLITQHLSLVEQADHILFLEGGAIREGGTHQQLMEKKGCYWAMVQAPADAPE [TAP1] | 49.8 °C | 50.5 °C | -0.112 | 0.594 | 1.74 | -0.0535

Source: the supplement of paper PMC5998384
